Measured values published in EP1248849B1.

Target: mouse LSR (mouse) (UniProt Q99KG5)
Experiment: cell-based or functional assay

Chain of UniProt Q99KG5 (Q99KG5 36-594): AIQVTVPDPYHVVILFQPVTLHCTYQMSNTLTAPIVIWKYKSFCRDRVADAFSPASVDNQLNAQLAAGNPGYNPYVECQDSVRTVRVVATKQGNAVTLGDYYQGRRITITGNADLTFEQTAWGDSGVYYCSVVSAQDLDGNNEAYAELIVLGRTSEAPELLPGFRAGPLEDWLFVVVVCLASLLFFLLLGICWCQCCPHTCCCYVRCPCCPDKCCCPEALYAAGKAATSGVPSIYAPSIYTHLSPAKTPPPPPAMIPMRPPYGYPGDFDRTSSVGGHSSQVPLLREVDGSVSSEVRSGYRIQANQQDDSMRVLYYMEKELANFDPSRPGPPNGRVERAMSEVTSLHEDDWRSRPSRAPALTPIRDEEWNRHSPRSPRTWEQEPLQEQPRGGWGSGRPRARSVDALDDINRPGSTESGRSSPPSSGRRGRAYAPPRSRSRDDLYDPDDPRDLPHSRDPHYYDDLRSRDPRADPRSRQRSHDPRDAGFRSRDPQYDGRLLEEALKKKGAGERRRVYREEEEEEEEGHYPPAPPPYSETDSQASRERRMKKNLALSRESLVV

Substance: 125I-mouse leptin (from UniProt P41160 22-167) (ligand)
- leptin uptake in a liver cell line (BPRCL), gOBG3 against OBG3: > 30%
